Source: the MegaScale stability set (Tsuboyama et al. 2023)

B1: r4_43_TrROS_Hall (parent)
chain: DLVTIKVPLENLEEIKKAAEKAGFKIVSISYDKENKEVTIVIEKKK

Variants of: B1
Assay: folding stability dG (cDNA display proteolysis); higher = more stable
Conditions: PBS, room temperature

Folding stability dG [kcal/mol]: each site, then its substitutions
E14: I 3.71 | D 3.68 | C 4.03 | A 3.78 | M 3.89 | N 3.83 | Y 3.75 | T 3.76 | K 3.43 | S 3.7 | V 3.71 | L 3.53 | W 3.86 | R 3.78 | Q 3.56 | H 4.06 | F 3.99 | G 3.86 | P 3.95
I26: F 3.31 | D 1.25 | E 1.75 | A 2.13 | N 1.35 | P 1.96 | H 1.53 | K 1.31 | L 3.59 | W 3.12 | Y 2.52 | R 1.21 | V 3.41 | Q 2.02 | M 3.31 | S 1.81 | T 2.76 | C 3 | G 0.98
S28: T 3.48 | C 3.69 | E 3.18 | K 3.52 | L 3.18 | V 3.22 | F 3.77 | N 3.42 | R 3.88 | D 3.02 | A 3.71 | W 3.88 | I 3.39 | Y 3.88 | M 3.28 | P 2.51 | Q 3.48 | G 3.53
K17: D 3.44 | L 3.73 | V 3.69 | P 2.14 | N 3.17 | C 3.75 | F 4 | Q 3.75 | R 3.43 | W 4.21 | A 3.56 | E 3.45 | T 3.65 | M 3.82 | I 3.8 | G 3.73 | H 3.83 | S 3.72 | Y 4.27
Y31: Q 3.23 | D 2.58 | H 3.41 | P 2.97 | N 2.95 | M 3.19 | F 3.3 | K 3.34 | E 3.29 | C 3.37 | I 3.27 | G 2.76 | A 3.06 | L 3.12
F24: E 2.85 | G 2.74 | R 2.77 | M 2.55 | P 1.47 | V 2.74 | L 2.8 | K 2.51 | W 3.68 | T 2.88 | A 3.19 | Y 3.53 | Q 2.5 | N 2.56 | I 2.52 | D 2.47 | H 2.73 | S 2.69
E20: L 3.96 | C 3.67 | H 3.6 | N 3.55 | D 3.49 | G 3.43 | A 3.68 | P 3.12 | W 3.99 | F 4.07 | K 3.62 | T 3.27 | Q 3.28 | M 3.72 | Y 3.92 | V 3.56 | S 3.66 | R 3.72 | I 3.65
K25: C 3.06 | E 3.04 | T 3.58 | N 3.34 | A 3.12 | I 3.56 | P 2.05 | H 3.2 | F 3.9 | R 4.04 | V 3.08 | M 3.63 | S 3.58 | Q 3.29 | D 2.73 | G 2.89 | W 3.57 | L 3.05 | Y 3.88
S30: L 3.74 | M 3.49 | F 3.9 | H 3.68 | N 3.79 | R 3.62 | K 3.59 | I 3.66 | Q 3.47 | C 3.53 | P 0.669 | W 3.71 | Y 3.83 | E 3.4 | T 3.66 | A 3.4 | G 3.22 | D 3.5 | V 3.96
K16: I 3.9 | L 3.61 | Q 3.57 | C 3.47 | Y 4.02 | P 1.97 | H 3.29 | V 3.6 | G 3.4 | A 3.75 | D 2.66 | E 3.29 | N 3.35 | R 3.37 | W 3.8 | M 3.58 | F 3.62 | T 3.88 | S 3.58
E13: Y 3.77
A22: M 3.68 | T 3.33 | F 3.67 | D 3.13 | W 4.33 | Q 3.62 | L 3.66 | R 3.68 | E 3.2 | P 2.38 | I 3.67 | Y 3.95 | V 3.75 | K 3.58 | S 3.56 | G 3.52 | C 3.79 | H 3.64 | N 3.54
K21: V 3.93 | N 3.42 | D 3.16 | Y 4.25 | A 3.79 | T 3.9 | H 3.78 | Q 3.9 | L 3.57 | G 3.83 | R 4.07 | E 2.94 | F 4.43 | S 3.93 | M 4.03 | I 3.93 | P 2.74 | W 4.37 | C 3.87
A19: E 2.89 | S 3.69 | D 1.76 | G 3.23 | I 3.61 | N 3.55 | T 3.8 | Q 3.37 | V 3.97 | H 3.45 | R 3.11 | F 3.52 | Y 3.68 | P 1.44 | C 3.44 | M 3.95 | K 3.32 | L 3.69 | W 3.99
G23: R 3.52 | N 3.44 | T 3.23 | C 3.84 | D 2.75 | S 3.28 | L 3.52 | W 3.67 | P 2.92 | M 3.46 | V 2.78 | K 3.73 | E 3.18 | Q 3.51 | Y 3.44 | A 3.54 | F 3.61 | I 2.98 | H 3.79
A18: E 3.65 | Q 3.62 | G 3.34 | C 3.97 | W 4.29 | I 3.67 | N 3.5 | R 3.72 | L 3.55 | H 3.77 | V 3.73 | M 3.94 | P 1.8 | D 3.57 | K 3.86 | S 3.65 | F 3.45 | T 3.43 | Y 3.84
V27: G 2.59 | M 3.99 | H 3.96 | C 3.64 | N 3.24 | A 3.48 | L 3.51 | I 3.57 | K 3.96 | W 4.34 | D 2.75 | S 3.35 | E 2.88 | F 3.87 | R 3.96 | Q 3.48 | P 1.89 | T 3.77 | Y 4.35
I29: M 3.79 | E 3.18 | V 3.67 | L 3.85 | Y 4.25 | K 2.44 | T 3.56 | Q 3.28 | R 2.47 | G 1.61 | H 2.76 | S 2.98 | A 3.16 | F 4.07 | D 1.72 | N 1.97 | W 3.93
I15: N 3.08 | G 3.06 | A 4.01 | S 3.41 | L 3.71 | P 1.54 | D 2.44 | Q 3.58 | Y 3.88 | K 3.37 | T 3.38 | E 3.39 | H 3.73 | F 4.13 | R 3.42 | C 3.45 | W 4.14 | M 3.42 | V 3.87
